Patent US20240116985A1 (published 2024)
Starred links: 1 amine or outer side, 2 acyl side, 3 side chain; linkers in the order of their positions; H or OH if unused. Positions of bridges follow the written chain, without caps; N, C: chain ends. Non-standard residues stand in square brackets, D forms with d. Primed or numbered codes have the meaning given here. B5(4) = 2,2-bis(4-pentenyl)glycine = 2-amino-2-(pent-4-en-1-yl)hept-6-enoic acid (stitching residue), C=CCCCC(CCCC=C)(N[*:1])C(=O)[*:2]; B5(5) = 2,2-bis(4-pentenyl)glycine, 2-amino-2-(pent-4-en-1-yl)hept-6-enoic acid (stitching residue), C=CCCCC(CCCC=C)(N[*:1])C(=O)[*:2]; SeN = (S)-5-(((allyloxy)carbonyl)(methyl)amino)-2-amino-2-methylpentanoic acid, C=CCOC(=O)N(C)CCC[C@](C)(N[*:1])C(=O)[*:2]; B5(19) = 2-amino-2-(pent-4-en-1-yl)hept-6-enoic acid (bis(4-pentenyl)glycine), C=CCCCC(CCCC=C)(N[*:1])C(=O)[*:2]; B5 = 2-amino-2-(pent-4-en-1-yl)hept-6-enoic acid, C=CCCCC(CCCC=C)(N[*:1])C(=O)[*:2]; Phe(3,4-F2) = N[C@@H](Cc1ccc(F)c(F)c1)C(=O)O; Phe(3-Me) = Cc1cccc(C[C@H](N)C(=O)O)c1; 2Nal = N[C@@H](Cc1ccc2ccccc2c1)C(=O)O; αAllylPro = C=CC[C@@]1(C(=O)O)CCCN1; S8 = C=CCCCCCC[C@](C)(N)C(=O)O

T1: full-length beta-Catenin (Uniprot ID P35222) (Homo sapiens (Human), UniProt P35222 1-781)
T1 construct: Used full-length in the FP and AlphaScreen assays; also called B-Catenin; bCat
T1 sequence: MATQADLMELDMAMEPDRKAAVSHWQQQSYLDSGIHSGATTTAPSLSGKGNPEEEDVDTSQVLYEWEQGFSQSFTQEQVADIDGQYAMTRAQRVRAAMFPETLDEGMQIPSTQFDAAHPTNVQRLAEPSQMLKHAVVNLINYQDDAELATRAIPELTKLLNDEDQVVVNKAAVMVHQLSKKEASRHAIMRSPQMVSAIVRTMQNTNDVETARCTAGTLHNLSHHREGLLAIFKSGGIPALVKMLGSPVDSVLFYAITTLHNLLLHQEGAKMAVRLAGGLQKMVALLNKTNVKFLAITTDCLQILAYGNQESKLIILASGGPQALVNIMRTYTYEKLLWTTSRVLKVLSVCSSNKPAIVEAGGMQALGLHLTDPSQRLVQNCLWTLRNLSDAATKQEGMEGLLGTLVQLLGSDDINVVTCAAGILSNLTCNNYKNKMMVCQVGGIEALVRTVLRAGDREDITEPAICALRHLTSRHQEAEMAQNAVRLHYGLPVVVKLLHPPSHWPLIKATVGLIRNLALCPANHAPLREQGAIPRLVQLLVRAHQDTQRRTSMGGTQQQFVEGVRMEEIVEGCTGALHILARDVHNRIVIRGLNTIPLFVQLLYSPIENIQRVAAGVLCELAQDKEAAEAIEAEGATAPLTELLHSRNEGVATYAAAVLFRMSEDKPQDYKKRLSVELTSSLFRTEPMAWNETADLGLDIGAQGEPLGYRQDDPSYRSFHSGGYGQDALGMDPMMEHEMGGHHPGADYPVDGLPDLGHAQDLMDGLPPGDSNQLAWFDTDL

B1: I-189 (peptide)
peptide: Ac-[αAllylPro]DI[B5(5)]DDAAFQ[SeN]FWH-NH2
modifications: staple 1-4, 4-11; not fully specified; printed as Ac-PL3-Asp-Ile-B5-Asp-Asp-Ala-Ala-Phe-Gln-SeN-Phe-Trp-His-NH2
notes: Stapled peptide composition
B2: I-180 (peptide)
peptide: XDIXDEAAFQXFWQ
modifications: not fully specified; As printed: Ac-PL3-Asp-Ile-B5-Asp-Glu-Ala-Ala-Phe-Gln-S8-Phe-Trp-Gln-NH2. N-terminal Ac; C-terminal amide; PL3 (1), B5 (4), S8 (11) stapled by olefin metathesis (PL3-B5 and B5-S8)
notes: Stapled peptide composition; this is the earlier-eluting isomer composition
B3: I-187 (peptide)
peptide: XDAXDEAAFAXFWA
modifications: not fully specified; As printed: Ac-PL3-Asp-Ala-B5-Asp-Glu-Ala-Ala-Phe-Ala-S8-Phe-Trp-Ala-NH2. N-terminal Ac; C-terminal amide; PL3 (1), B5 (4), S8 (11) stapled by olefin metathesis (PL3-B5 and B5-S8)
notes: Stapled peptide composition; this is the later-eluting isomer composition
B4: I-186 (peptide)
peptide: XDAXDEAAFAXFWA
modifications: not fully specified; As printed: Ac-PL3-Asp-Ala-B5-Asp-Glu-Ala-Ala-Phe-Ala-S8-Phe-Trp-Ala-NH2. N-terminal Ac; C-terminal amide; PL3 (1), B5 (4), S8 (11) stapled by olefin metathesis (PL3-B5 and B5-S8)
notes: as for B2
B5: I-190 (peptide)
peptide: Ac-[αAllylPro]DI[B5(5)]DDAAFQ[SeN]FWH-NH2
modifications: staple 1-4, 4-11; not fully specified; printed as Ac-PL3-Asp-Ile-B5-Asp-Asp-Ala-Ala-Phe-Gln-SeN-Phe-Trp-His-NH2
notes: Stapled peptide composition
B6: I-181 (peptide)
peptide: XDIXDEAAFQXFWQ
modifications: not fully specified; As printed: Ac-PL3-Asp-Ile-B5-Asp-Glu-Ala-Ala-Phe-Gln-S8-Phe-Trp-Gln-NH2. N-terminal Ac; C-terminal amide; PL3 (1), B5 (4), S8 (11) stapled by olefin metathesis (PL3-B5 and B5-S8)
notes: as for B3
B7: I-188 (peptide)
peptide: Ac-[αAllylPro]DI[B5(5)]DDAAFQ[SeN]FWH-NH2
modifications: staple 1-4, 4-11; not fully specified; printed as Ac-PL3-Asp-Ile-B5-Asp-Asp-Ala-Ala-Phe-Gln-SeN-Phe-Trp-His-NH2
notes: Stapled peptide composition

molecular target: T1, full-length beta-Catenin (Uniprot ID …); experiment: fluorescence polarization competition; full-length beta-catenin + 5FAM-TCF4(10-53) probe as competitor; peptide titrated
Description: (§1) The plate was incubated protected from light for 60 minutes at 20° C. prior to read. Reads were performed on a CLARIOstar plate reader (BMG Labtech) in duplicate, and data were fitted to a 1:1 binding model with hill slope using an in-house script. All provided concentrations are final concentrations.

Row | EC50 [nM] | Binder
1 | 1600 | B1
2 | 561 | B2
3 | 1010 | Ac-[αAllylPro]DI[B5(19)]DEAAFQ[S8]FWA-NH2 (staple 1-4, 4-11, Stapled peptide composition) [I-194]
4 | 3320 | B3
5 | 5000 | B4
6 | 696 | B5
7 | 310 | B6
8 | 1740 | Ac-[αAllylPro]DA[B5(4)]DEAA[Phe(3-Me)]V[S8]FWQ-NH2 (staple 1-4, 4-11, Stapled peptide composition) [I-208]
9 | 2800 | Ac-[αAllylPro]DA[B5(19)]D[dE]AAFV[S8]FWQ-NH2 (staple 1-4, 4-11, Stapled peptide composition) [I-182]
10 | 5000 | Ac-[αAllylPro]DA[B5]NEAAFV[S8]FWQ-NH2 (staple 1-4, 4-11, Stapled peptide composition) [I-198]
11 | 1600 | B7
12 | 3110 | Ac-[αAllylPro]DA[B5(4)]DEAA[Phe(3,4-F2)]V[S8]F[2Nal]Q-NH2 (staple 1-4, 4-11, Stapled peptide composition) [I-184]
13 | 1740 | Ac-[αAllylPro]DA[B5(4)]DEAA[Phe(3-Me)]V[S8]FWQ-NH2 (staple 1-4, 4-11, Stapled peptide composition) [I-207]

molecular target: T1, full-length beta-Catenin (Uniprot ID …); experiment: AlphaScreen (nickel chelate) competition; full-length beta-catenin + biotin-TCF4(10-53) probe as competitor; peptide titrated
Description: as §1, with “Equal volume of the titrated peptide was added to the” for “The”, “and” for “was”, “incubated for 15 minutes at 20° C. Then 4 uL of donor and 4 uL acceptor beads at 10 ug/mL were added to the plate, for a 16 uL reaction pool and” for “incubated”

Row | EC50 [nM] | Binder
14 | 156 | B1
15 | 88 | B2
16 | 105 | Ac-[αAllylPro]DI[B5(19)]DEAAFQ[S8]FWA-NH2 (staple 1-4, 4-11, Stapled peptide composition) [I-194]
17 | 204 | B3
18 | 518 | B4
19 | 94 | B5
20 | 51 | B6
21 | 143 | Ac-[αAllylPro]DA[B5(4)]DEAA[Phe(3-Me)]V[S8]FWQ-NH2 (staple 1-4, 4-11, Stapled peptide composition) [I-208]
22 | 750 | Ac-[αAllylPro]DA[B5(19)]D[dE]AAFV[S8]FWQ-NH2 (staple 1-4, 4-11, Stapled peptide composition) [I-182]
23 | 538 | Ac-[αAllylPro]DA[B5]NEAAFV[S8]FWQ-NH2 (staple 1-4, 4-11, Stapled peptide composition) [I-198]
24 | 156 | B7
25 | 628 | Ac-[αAllylPro]DA[B5(4)]DEAA[Phe(3,4-F2)]V[S8]F[2Nal]Q-NH2 (staple 1-4, 4-11, Stapled peptide composition) [I-184]
26 | 143 | Ac-[αAllylPro]DA[B5(4)]DEAA[Phe(3-Me)]V[S8]FWQ-NH2 (staple 1-4, 4-11, Stapled peptide composition) [I-207]
